Values joined by “and” are separate entries in the source; they are usually repeats but may differ in a detail not shown here. Equal values may be shown once. Read-outs that look alike come from different tables or passages of the source.
Legend:
[1] = target: T1, biotinylated human TIM-3-Fc antigen (in-house product, SEQ ID No: 118) (human, biotinylated); assay: competition ELISA: human Galectin-9 coated, biotinylated human TIM-3-Fc pre-mixed with the antibody dilution series, Streptavidin-HRP, A450; blocked ligand: human Galectin-9
[2] = target: T2, human CD39 (Accession No. NM_001776.6) expressed on cells (human, UniProt P49961 1-510); assay: flow cytometry on a mix of Jurkat, Jurkat/TIM-3, Jurkat/CD39 and Jurkat/TIM-3+CD39 cells in one well, antibody at 0.1 nM, BV421-anti-hIgG, MFI of BV421 per cell group
T2 construct: whole, on cells; On Jurkat, 293T or SK-MEL28 cells; also called Jurkat/CD39; 293T/CD39
T2 sequence (looked up): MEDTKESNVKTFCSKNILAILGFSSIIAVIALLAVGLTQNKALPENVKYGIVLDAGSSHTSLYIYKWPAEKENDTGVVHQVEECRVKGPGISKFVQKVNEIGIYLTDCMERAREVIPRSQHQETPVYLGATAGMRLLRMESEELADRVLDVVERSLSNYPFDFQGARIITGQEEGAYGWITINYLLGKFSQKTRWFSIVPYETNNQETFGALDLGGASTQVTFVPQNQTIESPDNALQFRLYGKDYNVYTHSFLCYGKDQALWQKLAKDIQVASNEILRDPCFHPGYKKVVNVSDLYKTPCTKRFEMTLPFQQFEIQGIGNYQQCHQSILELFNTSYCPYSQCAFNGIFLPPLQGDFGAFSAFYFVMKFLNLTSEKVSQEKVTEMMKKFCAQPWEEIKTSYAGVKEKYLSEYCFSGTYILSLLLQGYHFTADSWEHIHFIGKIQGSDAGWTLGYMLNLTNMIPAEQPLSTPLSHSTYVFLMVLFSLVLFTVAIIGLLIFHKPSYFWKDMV

[3] = target: T1, biotinylated human TIM-3-Fc antigen …; assay: competition ELISA: human Galectin-9 coated, biotinylated human TIM-3-Fc pre-mixed with the antibody dilution series, Streptavidin-HRP, A450; blocked ligand: human Galectin-9; remark: listed apart in the source
[4] = target: T1, biotinylated human TIM-3-Fc antigen …; assay: as above; remark: listed apart in the source
[5] = target: T3, human TIM-3 (Accession No. JX049979.1) stably expressed on cells (human, UniProt Q8TDQ0 22-301); assay: flow cytometry, Jurkat/TIM-3 + CD39 cells, KD from MFI
T3 construct: whole, on cells; On Jurkat or 293T cells; also called Jurkat/TIM-3; 293T/TIM-3

[6] = target: T3, human TIM-3 (Accession No. JX049979.1) …; assay: flow cytometry, Jurkat/TIM-3 cells, KD from MFI
[7] = target: T3, human TIM-3 (Accession No. JX049979.1) …; assay: flow cytometry, 293T/TIM-3 + CD39 cells, KD from MFI
[8] = target: T1, biotinylated human TIM-3-Fc antigen …; assay: flow cytometry, inhibition of biotinylated TIM-3-Fc binding to phosphatidylserine on apoptotic Jurkat cells
[9] = target: T3, human TIM-3 (Accession No. JX049979.1) …; assay: flow cytometry, 293T/TIM-3 cells, KD from MFI
[10] = target: T1, biotinylated human TIM-3-Fc antigen …; assay: flow cytometry, inhibition of biotinylated TIM-3-Fc binding to phosphatidylserine on apoptotic Jurkat cells; remark: listed apart in the source

- IC50 (read off the curve) [1]: ~0.5 nM and ~0.3 nM
- binding result [2]: no binding (tested: 0.1 nM)
- IC50 (read off the curve) [3]: ~1 nM
- IC50 (read off the curve) [4]: ~0.5 nM and ~1 nM
- Kd [5]: 0.339 nM
- Kd [6]: 0.274 nM
- Kd [7]: 3.86 nM
- IC50 [8]: 16.7 nM and 6.66 nM and 8.42 nM
- Kd [9]: 2.72 nM
- IC50 [10]: 8.56 nM and 8.62 nM
B1: Hu003_13_F20_sc (antibody)
scFv: QVQLQESGGGLVKPGGSLKLSCAASGFTFSSYYMSWVRQTPDKRLEWVATISNSGGSTYYPDSVKDRFTISRDNAKNTLYLQMSSLKSEDTAMYYCARDPYYTNYVPMDYWGQGTMVTVSSGGGGSGGGGSGGGGSGGGGSDIVMTQSPSFLSASVGDRVTITCKASQYVDTYVAWYQQRPGKAPKPLIYSASTRHTGVPSRFSGSGSGTEFTLTISSLQPEDFATYFCAQYSSSPLTFGGGTKLELK
notes: scFv-Fc homodimer, anti-TIM-3; also called scFv-Fc homodimeric antibody of anti-TIM-3_scFv antibody (humanized) Hu003_13_F20; not shown: GGGG linker and Fc-LALA (IgG1 Fc with L234A and L235A)

Source: patent publication US20260085127A1 (BRIGHTPATH BIOTHERAPEUTICS, published 2026)
